Laboratory results from PMC6538776, “The Bacterial DNA Binding Protein MatP Involved in Linking the Nucleoid Terminal Domain to the Divisome at Midcell Interacts with Lipid Membranes” (mBio, 2018).

How the values were obtained:
MatP = biological target: T1, MatP (Escherichia coli, UniProt P0A8N0 1-150); experiment: fluorescence anisotropy; 300 mM KCl, 5 mM MgCl2; Kd in MatP dimer units; 1 dimer per DNA; 50 mM Tris-HCl, 300 mM KCl, 5 mM MgCl2, pH 7.5; temperature not stated; matS-Fl 10 nM in anisotropy titrations; details: protein: recombinant; tags: untagged (N-terminal His6 removed by thrombin); chain copies: 2; label: 5'-fluorescein on sense strand
T1 sequence: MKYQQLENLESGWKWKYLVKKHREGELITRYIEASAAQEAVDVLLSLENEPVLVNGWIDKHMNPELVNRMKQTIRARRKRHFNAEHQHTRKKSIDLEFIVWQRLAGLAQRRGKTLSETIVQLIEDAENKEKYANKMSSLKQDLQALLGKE

[1] = biological target: the molecule itself; experiment: AUC + other: light scattering; MatP alone in solution, working buffer (50 mM Tris-HCl, 300 mM KCl, 5 mM MgCl2, pH 7.5); details in the supplement to Fig. S7

B1: matS-Fl (matS19) (dsDNA)
DNA 1: AAAGTGACACTGTCACCTT
DNA 2: AAGGTGACAGTGTCACTTT
B1 showed a Kd (MatP) of 0.015 ± 0.002 µM.

B2: MatP (natural protein, Escherichia coli, UniProt P0A8N0 1-150, looked up)
chain: T1 sequence
notes: also called recombinant untagged MatP; not shown: His6, N-terminal, cleaved
For B2, the “stoichiometry N” value [1] was 2.
